In patent US20260232827A1 (Zymeworks, published 2026):

T1: human NaPi2b (sodium-dependent phosphate transporter 2B) (human, UniProt O95436 1-690)
T1 construct: Endogenous NaPi2b on the human tumor cell lines IGROV-1, HCC-78, H441 and H1781; also called hNaPi2b; SLC34A2
T1 sequence: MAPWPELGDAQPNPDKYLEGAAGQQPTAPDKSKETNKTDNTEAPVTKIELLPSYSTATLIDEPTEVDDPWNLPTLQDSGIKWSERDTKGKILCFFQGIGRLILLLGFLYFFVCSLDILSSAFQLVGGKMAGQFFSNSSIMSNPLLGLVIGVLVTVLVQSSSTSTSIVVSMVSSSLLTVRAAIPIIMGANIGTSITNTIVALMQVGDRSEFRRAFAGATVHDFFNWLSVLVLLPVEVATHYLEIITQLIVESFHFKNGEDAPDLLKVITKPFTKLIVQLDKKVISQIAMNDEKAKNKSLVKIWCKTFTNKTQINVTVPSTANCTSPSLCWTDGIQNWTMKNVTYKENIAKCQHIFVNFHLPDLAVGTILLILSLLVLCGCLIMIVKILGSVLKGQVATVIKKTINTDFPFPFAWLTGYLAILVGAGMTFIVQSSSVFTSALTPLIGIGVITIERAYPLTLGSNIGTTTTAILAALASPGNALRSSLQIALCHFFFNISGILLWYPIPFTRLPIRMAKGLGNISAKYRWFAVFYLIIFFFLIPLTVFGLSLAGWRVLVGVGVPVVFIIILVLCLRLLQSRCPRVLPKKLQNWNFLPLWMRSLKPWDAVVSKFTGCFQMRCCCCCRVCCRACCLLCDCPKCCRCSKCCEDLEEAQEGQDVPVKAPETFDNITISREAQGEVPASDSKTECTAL

T2: human sodium-dependent phosphate transporter 2B (NaPi2b) (human, UniProt O95436 1-690)
T2 construct: UniProt ID is given as 095436 [sic]; also called hNaPi2b; Hu NaPi2b
T2 sequence: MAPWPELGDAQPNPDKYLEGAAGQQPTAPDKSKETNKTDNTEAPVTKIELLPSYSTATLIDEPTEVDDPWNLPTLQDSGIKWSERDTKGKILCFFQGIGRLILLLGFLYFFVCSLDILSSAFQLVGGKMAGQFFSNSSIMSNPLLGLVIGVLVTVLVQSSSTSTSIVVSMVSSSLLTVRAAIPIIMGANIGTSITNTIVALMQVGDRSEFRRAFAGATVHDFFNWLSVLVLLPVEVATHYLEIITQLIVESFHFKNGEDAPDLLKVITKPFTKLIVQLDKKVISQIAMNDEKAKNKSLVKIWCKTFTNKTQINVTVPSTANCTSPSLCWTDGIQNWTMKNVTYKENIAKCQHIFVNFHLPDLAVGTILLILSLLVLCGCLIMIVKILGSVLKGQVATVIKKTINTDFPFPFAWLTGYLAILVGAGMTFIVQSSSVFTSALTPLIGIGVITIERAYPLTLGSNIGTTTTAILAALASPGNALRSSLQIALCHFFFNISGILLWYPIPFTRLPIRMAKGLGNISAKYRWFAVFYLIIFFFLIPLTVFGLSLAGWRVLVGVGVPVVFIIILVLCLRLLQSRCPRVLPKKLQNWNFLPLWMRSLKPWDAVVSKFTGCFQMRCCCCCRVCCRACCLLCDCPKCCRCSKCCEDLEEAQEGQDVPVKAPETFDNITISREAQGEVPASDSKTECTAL


Legend:
[1] = target: T1, human NaPi2b (sodium-dependent …); assay: flow cytometry on H441 cells (endogenous NaPi2b), 24 h at 4 C
Description: (§1) Cells were maintained under standard culture conditions (37° C./5% CO₂) until assay set-up. […] Cells were removed from culture vessels using Cell Dissociation Buffer (Invitrogen, Waltham, MA), seeded at 50,000 cells/well in conical-bottom 96-well plates, and treated with test antibody or antibody-drug conjugate for 24 hours at 4° C. to prevent internalization. […] Following incubation and washing, fluorescence was detected by flow cytometry on a BD LSRFortessa™ Cell Analyzer (BD Biosciences, Franklin Lake, NJ) with 1,000 minimum events collected per well.

[2] = target: T1, human NaPi2b (sodium-dependent …); assay: flow cytometry on IGROV-1 cells (endogenous NaPi2b), 24 h at 4 C
Description: as §1

[3] = target: T1, human NaPi2b (sodium-dependent …); assay: cell-based or functional assay
[4] = target: T1, human NaPi2b (sodium-dependent …); assay: cell-based or functional assay; remark: listed apart in the source
[5] = target: T1, human NaPi2b (sodium-dependent …); assay: flow cytometry on HCC-78 cells (endogenous NaPi2b), 24 h at 4 C
Description: as §1

[6] = target: T2, human sodium-dependent phosphate …; assay: flow cytometry on HCC-78 cells (endogenous NaPi2b), 24 h at 4 C, anti-human IgG Fc AF647, APC-A GeoMean
Description: as §1

[7] = target: T2, human sodium-dependent phosphate …; assay: flow cytometry on IGROV-1 cells (endogenous NaPi2b), 24 h at 4 C, anti-human IgG Fc AF647, APC-A GeoMean
[8] = target: T2, human sodium-dependent phosphate …; assay: flow cytometry on H441 cells (endogenous NaPi2b), 24 h at 4 C, anti-human IgG Fc AF647, APC-A GeoMean
Description: as §1

Row | Binder | Bmax (MFI) [1] [MFI] | Kd [1] [nM] | Bmax (MFI) [2] [MFI] | Kd [2] [nM] | Internalized Fluorescence Fold-Over Untreated, H441, 4 h, 2.5 nM [3] [fold] | Internalized Fluorescence Fold-Over Untreated, H441, 24 h, 2.5 nM [3] [fold] | Internalized Fluorescence Fold-Over Untreated, HCC-78, 4 h, 2.5 nM [3] [fold] | Internalized Fluorescence Fold-Over Untreated, HCC-78, 24 h, 2.5 nM [3] [fold] | Internalized Fluorescence Fold-Over Untreated, IGROV-1, 4 h, 2.5 nM [3] [fold] | Internalized Fluorescence Fold-Over Untreated, IGROV-1, 24 h, 2.5 nM [3] [fold] | EC50 (nM), in vitro cytotoxicity, H441 spheroids, 7 days [4] [nM] | EC50 (nM), in vitro cytotoxicity, H1781 spheroids, 7 days [4] [nM] | Bmax (MFI) [5] [MFI] | Kd [5] [nM] | EC50 (read off the curve) [6] [nM] | EC50 (read off the curve) [7] [nM] | EC50 (read off the curve) [8] [nM]
1 | v40502-MC-GGFG-AM-Compound 139 DAR 4 (antibody, human IgG1, kappa, L234A L235A, drug-linker MC-GGFG-AM-Compound 139 on cysteines freed by TCEP reduction, DAR 4 over the whole antibody) heavy: not shown light: DVQMTQSPSSLSASVGDRVTITCRASQDVYSYLNWYQQKPGKAVKLLIYYTSRLQSGVPSRFSGSGSGTDYTLTISSLQPEDFATYYCQQYNIFPWTFGQGTKLEIKRTVAAPSVFIFPPSDEQLKSGTASVVCLLNNFYPREAKVQWKVDNALQSGNSQESVTEQDSKDSTYSLSSTLTLSKADYEKHKVYACEVTHQGLSSPVTKSFNRGEC | 518 | 0.81 | 10700 | 0.82 | 1.2 | 1.9 | 5.3 | 36.5 | 6.8 | 25.4 | 7.57 | 1.15 | 7770 | 1.12 | – | – | –
2 | v40502 (LALADS)-MC-GGFG-AM-Compound 139 DAR 4 (antibody, human IgG1, kappa, L234A L235A, as above; MC-GGFG-AM-Compound 139 drug-linker on cysteines freed by TCEP reduction; sites not stated; DAR 4, Antibody-drug conjugate of v40502) heavy: not shown light: DVQMTQSPSSLSASVGDRVTITCRASQDVYSYLNWYQQKPGKAVKLLIYYTSRLQSGVPSRFSGSGSGTDYTLTISSLQPEDFATYYCQQYNIFPWTFGQGTKLEIKRTVAAPSVFIFPPSDEQLKSGTASVVCLLNNFYPREAKVQWKVDNALQSGNSQESVTEQDSKDSTYSLSSTLTLSKADYEKHKVYACEVTHQGLSSPVTKSFNRGEC | – | – | – | – | – | – | – | – | – | – | – | – | – | – | ~3 | ~2 | ~0.6
3 | v40502 (LALADS) anti-NaPi2b antibody (antibody, human IgG1, kappa, L234A L235A, v38591 with L234A, L235A and D265S (EU) in the Fc) heavy: not shown light: DVQMTQSPSSLSASVGDRVTITCRASQDVYSYLNWYQQKPGKAVKLLIYYTSRLQSGVPSRFSGSGSGTDYTLTISSLQPEDFATYYCQQYNIFPWTFGQGTKLEIKRTVAAPSVFIFPPSDEQLKSGTASVVCLLNNFYPREAKVQWKVDNALQSGNSQESVTEQDSKDSTYSLSSTLTLSKADYEKHKVYACEVTHQGLSSPVTKSFNRGEC | – | – | – | – | – | – | – | – | – | – | – | – | – | – | ~3 | ~2 | ~0.6
